Test results as given in the supplement of paper PMC7125110.
± gives the standard error. For some assays here: Fewer inactive variants are shown than the library holds.

B1: glmS ribozyme (parent)
chain: AUAAAAGCGCCAGAACUACAGAAAUGUAGUUGACGAGGAGGAGGUUUAUCGAAUUUUCGGCGGAUGCCUCCAAA

Legend:
Conditions in all cases: with glucosamine-6-phosphate
glucosamine-6-phosphate [1] = variants of: B1; assay: kcat; higher = faster cleavage; RNA array
How it was run: (§1)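 E. coli RNA polymerase transcribed barcoded ribozyme variants in situ on sequenced MiSeq chips, which were tracked via a hybridised Cy3 probe at 37 °C. Tiles were imaged over ~14 h after glucosamine-6-phosphate (40 μM to 10 mM) in HEPES/KCl/Mg(OAc)2 buffer was flowed in. Normalised per-tile medians were fit to one- or two-exponential decays for kobs, and kcat and KM came from weighted Michaelis–Menten fits.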

glucosamine-6-phosphate [2] = variants of: B1; assay: KM; higher = weaker cofactor use; RNA array
How it was run: as §1

glucosamine-6-phosphate [3] = variants of: B1; assay: self-cleavage kobs at 640 uM GlcN6P; higher = faster cleavage; RNA array
How it was run: as §1

glucosamine-6-phosphate [4] = variants of: B1; assay: self-cleavage kobs at 2500 uM GlcN6P; higher = faster cleavage; RNA array
How it was run: as §1

glucosamine-6-phosphate [5] = variants of: B1; assay: self-cleavage kobs at 10000 uM GlcN6P; higher = faster cleavage; RNA array
How it was run: as §1

glucosamine-6-phosphate [6] = variants of: B1; assay: self-cleavage kobs at 40 uM GlcN6P; higher = faster cleavage; RNA array
How it was run: as §1

glucosamine-6-phosphate [7] = variants of: B1; assay: self-cleavage kobs at 160 uM GlcN6P; higher = faster cleavage; RNA array
How it was run: as §1

Row | Variant | kcat (glucosamine-6-phosphate [1]) [s⁻¹] | KM (glucosamine-6-phosphate [2]) [µM] | self-cleavage kobs at 640 uM GlcN6P (glucosamine-6-phosphate [3]) [s⁻¹] | self-cleavage kobs at 2500 uM GlcN6P (glucosamine-6-phosphate [4]) [s⁻¹] | self-cleavage kobs at 10000 uM GlcN6P (glucosamine-6-phosphate [5]) [s⁻¹] | self-cleavage kobs at 40 uM GlcN6P (glucosamine-6-phosphate [6]) [s⁻¹] | self-cleavage kobs at 160 uM GlcN6P (glucosamine-6-phosphate [7]) [s⁻¹]
1 | U30C U56A | 0.000339 ± 6.9e-06 | 2910 ± 110 | 6.11e-05 ± 6.9e-06 | 0.000155 ± 1.6e-05 | 0.000263 ± 2.4e-05 | – | –
2 | U30G A64G | 0.00607 ± 0.0017 | 1440 ± 540 | – | – | 0.0064 ± 0.0018 | 0.000178 ± 3.9e-05 | –
3 | U30G A64C | 5.41e-05 ± 5.3e-06 | 4950 ± 1100 | – | – | 3.61e-05 ± 1.5e-05 | – | –
4 | U30A U55G | 0.00534 ± 0.002 | – | 0.00138 ± 0.00022 | 0.00239 ± 0.00033 | 0.00586 ± 0.00095 | 0.000142 ± 2.1e-05 | 0.000286 ± 5.5e-05
5 | U30A A42U | 1.63e-05 ± 1.2e-07 | 588 ± 46 | – | – | 1.54e-05 ± 7.6e-06 | – | < 1e-05
6 | U30A A64G | 0.00654 ± 0.00069 | 1670 ± 240 | 0.00193 ± 0.00045 | 0.0035 ± 0.0008 | 0.00607 ± 0.0014 | 0.000149 ± 2.6e-05 | 0.000656 ± 0.00022
7 | G29U C58U C68U | 3.99e-05 ± 1.3e-05 | – | – | 5.55e-05 ± 2.2e-05 | – | – | –
8 | U31C A52U G63U U69G | 1.91e-05 ± 1.4e-06 | – | – | – | – | – | –
9 | U31A A53U | 0.02 ± 0.007 | 3760 ± 1700 | 0.00278 ± 0.00064 | 0.00529 ± 0.0016 | 0.0181 ± 0.0034 | 0.000232 ± 3.6e-05 | 0.000911 ± 0.00027
10 | U31A G40C | 0.00121 ± 0.00017 | 1410 ± 380 | 0.00048 ± 0.0001 | 0.00115 ± 0.00024 | 0.00101 ± 0.00011 | 3.09e-05 ± 7.3e-06 | 0.000105 ± 3e-05
11 | U31A G41A | 0.000876 ± 0.00042 | – | 0.000163 ± 3.6e-05 | 0.00078 ± 0.00012 | 0.000647 ± 0.00014 | – | 8.73e-05 ± 1.5e-05
12 | U30G U46G | 0.00267 ± 0.0006 | 3990 ± 1200 | 0.000333 ± 4.9e-05 | 0.00112 ± 0.00015 | 0.00181 ± 0.00038 | 4.16e-05 ± 1.4e-05 | 0.000105 ± 2.3e-05
13 | U30G U46C | 0.000516 ± 3.6e-05 | 1240 ± 170 | 0.000167 ± 3.1e-05 | 0.000377 ± 7.4e-05 | 0.000443 ± 8.5e-05 | – | 6.38e-05 ± 2.1e-05
14 | U30A A53U | 0.00525 ± 0.00098 | 1860 ± 480 | 0.00135 ± 0.00021 | 0.00272 ± 0.00042 | 0.00523 ± 0.001 | 0.000128 ± 1.8e-05 | 0.00035 ± 7.7e-05
15 | U30A A53G | 0.00645 ± 0.0027 | – | 0.00196 ± 0.00055 | 0.00301 ± 0.00096 | 0.00929 ± 0.002 | 0.000256 ± 5.1e-05 | 0.000553 ± 0.00023
16 | U31A U56G | 0.0146 ± 0.0054 | 2950 ± 1500 | 0.00335 ± 0.00098 | 0.00579 ± 0.0015 | 0.0132 ± 0.0039 | 0.000249 ± 5.8e-05 | 0.000532 ± 0.00021
17 | G29U U65C | 6.8e-05 ± 1.9e-05 | – | – | 6.54e-05 ± 1.3e-05 | 5.46e-05 ± 1.2e-05 | – | –
18 | U31C A42G | 0.00894 ± 0.0011 | 2260 ± 400 | 0.00212 ± 0.00035 | 0.00407 ± 0.0011 | 0.00754 ± 0.0012 | 0.000166 ± 2.9e-05 | 0.000469 ± 0.00016
19 | G29U C70G | 7.29e-05 ± 6.3e-06 | 354 ± 150 | 5.02e-05 ± 8.2e-06 | 6.59e-05 ± 7.1e-06 | 6.77e-05 ± 7.7e-06 | – | –
20 | U31A U65A | 0.00266 ± 0.00015 | 3820 ± 350 | 0.000399 ± 5.4e-05 | 0.00107 ± 0.00022 | 0.00191 ± 0.00022 | 2.41e-05 ± 1.1e-05 | 9.46e-05 ± 3.5e-05
21 | U31A U65G | 0.00228 ± 0.00054 | 2390 ± 1000 | 0.000521 ± 8.8e-05 | 0.000854 ± 0.00019 | 0.00205 ± 0.00027 | 3.37e-05 ± 1.5e-05 | 0.000211 ± 6.2e-05
22 | U30G G59U | 1.09e-05 ± 1.8e-06 | – | – | – | – | < 1e-05 | –
23 | G29U U47G | 0.000866 ± 0.00021 | 1600 ± 640 | 0.000215 ± 3.4e-05 | 0.000515 ± 0.00015 | 0.000787 ± 0.00012 | – | 0.00011 ± 2.1e-05
24 | G29U G41C | 4.75e-05 ± 1.3e-05 | – | – | – | 3.1e-05 ± 9e-06 | – | –
25 | U31C A33U | 1.97e-05 ± 2.4e-06 | – | – | – | 1.73e-05 ± 6e-06 | – | –
26 | G29U G40U | 0.000422 ± 3.9e-05 | 1290 ± 220 | 0.00014 ± 1.5e-05 | 0.00032 ± 4.6e-05 | 0.000349 ± 4.9e-05 | – | 4.21e-05 ± 1.1e-05
27 | U30A U46A | 0.00042 ± 5.2e-05 | – | – | 0.000372 ± 0.0001 | 0.000363 ± 5.1e-05 | – | –
28 | U30A U46G | 0.000804 ± 0.00016 | – | – | 0.000638 ± 0.00022 | 0.000702 ± 8.5e-05 | 4.09e-05 ± 1.5e-05 | –
29 | U30A U46C | 0.000377 ± 6.9e-05 | 1730 ± 750 | 0.000117 ± 3.5e-05 | – | 0.000332 ± 7e-05 | – | –
30 | U30G G66C | 0.000132 ± 1.5e-05 | 1620 ± 600 | – | 9.1e-05 ± 1.7e-05 | 0.00011 ± 1.6e-05 | – | –
